Experimental data reported in patent US20250376709A1, “PAPB AS A BIMOIETY-DEPENDENT THIOETHER INSTALLATION TOOL” (UNIVERSITY OF UTAH RESEARCH FOUNDATION, priority 2022, published 2025).
Numbering of substitutions follows the chain as printed. Square brackets hold non-standard residues; d marks the D form. Ends that are not written are not given here.

Tests used:
PapB = assay: Enzymatic reactions of msPapA peptides with PapB (thioether crosslinking, U/HPLC-MS readout); format: biochemical; conditions: for extent of conversion to crosslinked peptide by PapB (in words): incubation with PapB, SAM and reductant, MS isotopic envelope; for substrate conversion: after 300 s; for substrate converted to crosslinked product: assessed from MS isotopic envelope after PapB
Experimental: Assays were conducted in a Coy Laboratories anaerobic chamber with 98% N2/2% H2 atmosphere at room temperature. All reactions contained 0.05 M PIPES·NaOH (pH 7.4), 2 mM DTT, 2.4 mM SAM (enzymatically synthesized and purified as previously described (deGruyter, J. N., et al. Biochem. 2017, 56 (30), 3863-3873)), ˜100-400 μM msPapA variants (concentration determined by peptide dry weight or by spectroscopic analysis in the case of Y19W), and […]-10 μM PapB. Either dithionite (dT) or flavodoxin (FldA), flavodoxin reductase (FPR) and NADPH were used to reduce PapB. For the assays that used chemical reductant, the total concentration was 2 mM dT. For the assays that used the biological reducing system, the mixtures contained 25 μM FldA, 2 μM FPR and 2 mM NADPH. The total volume of the reactions ranged from 0.1 mL for initial screenings to 0.5 mL for MS/MS Collision Induced Dissociation (CID) fragmentation experiments described below. Control reactions in the absence of dT, SAM and PapB were also conducted. Reactions were initiated with the addition of PapB and quenched at times ranging from 15 s to 2 h by the addition of 10% of the reaction volume of 30% (w/v) trichloroacetic acid (TCA, ACS grade). The samples were centrifuged at 16,000×g for 10 min in a microcentrifuge to pellet the precipitated PapB.
The assays were analyzed using either a Vanquish UHPLC with a diode-array detector connected to a Q-Exactive mass spectrometer or an Ultimate 3000 HPLC with a diode-array detector connected to a LTQ OrbiTrap XL mass spectrometer. Each was operated in positive ion mode, the FT analyzer was set to 100,000 resolution, 1 microscan, and 200 ms maximum injection time. Xcalibur software was used to analyze data. A 20 μL aliquot was injected onto a Hypersil GOLD C18 column (2.1 mm×150 mm, 1.9 μm particle size) (Thermo Fisher) pre-equilibrated in 0.1% (v/v) LC-MS Optima TFA (Fisher in LC-MS Optima water (Fisher). Chromatographic steps were carried out at 0.2 mL/min with buffer A containing 0.1% (v/v) TFA in Optima water and buffer B containing Optima grade acetonitrile with 0.1% (v/v) TFA. The separation consisted of washing with 100% A from 0 to 3 min, followed by a linear gradient from 100% to 0% A from 3 to 6 min, washing with 0% A from 6 to 10 min, and reequilibration with 100% A from 10 to 14 min. […]

Leader-CSAAAANDA = system: T1, Leader-CSAAAANDA
T1 sequence: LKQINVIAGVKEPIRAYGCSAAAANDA

Leader-CSNDAAA = system: T2, Leader-CSNDAAA
T2 sequence: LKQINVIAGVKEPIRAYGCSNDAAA

Leader-DSANCA = system: T3, Leader-DSANCA
T3 sequence: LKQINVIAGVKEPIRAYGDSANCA

leader-^DCSAN^DDA = system: T4, leader-^DCSAN^DDA
T4 sequence: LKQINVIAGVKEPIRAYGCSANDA

Leader-AAACSANDACSANDA = system: T5, Leader-AAACSANDACSANDA
T5 sequence: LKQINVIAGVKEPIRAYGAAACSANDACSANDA

Leader-CDSNNAANA = system: T6, Leader-CDSNNAANA
T6 sequence: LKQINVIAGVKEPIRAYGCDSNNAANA

Leader-AAACSACDAADA = system: T7, Leader-AAACSACDAADA
T7 sequence: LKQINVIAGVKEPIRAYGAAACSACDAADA

Leader-^DDSANCA = system: T8, Leader-^DDSANCA
T8 sequence: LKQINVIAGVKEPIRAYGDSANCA

Leader-DSAN^DCA = system: T9, Leader-DSAN^DCA
T9 sequence: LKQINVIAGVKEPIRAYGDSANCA

leader-CSAN^DDA = system: T10, leader-CSAN^DDA
T10 sequence: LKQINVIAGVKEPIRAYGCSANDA

Leader-AAACSANDA = system: T11, Leader-AAACSANDA
T11 sequence: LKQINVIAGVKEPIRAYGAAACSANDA

Leader-CSAANDA = system: T12, Leader-CSAANDA
T12 sequence: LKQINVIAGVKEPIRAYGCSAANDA

Leader-CSDNNAAA = system: T13, Leader-CSDNNAAA
T13 sequence: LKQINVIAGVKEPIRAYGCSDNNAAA

Y17W msPapA = system: T14, Y17W msPapA
T14 sequence: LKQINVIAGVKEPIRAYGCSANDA

leader-^DCSANDA = system: T15, leader-^DCSANDA
T15 sequence: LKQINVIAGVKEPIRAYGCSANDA

Leader-^DDSAN^DCA = system: T16, Leader-^DDSAN^DCA
T16 sequence: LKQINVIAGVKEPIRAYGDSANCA

Leader-AAAASACDAADA = system: T17, Leader-AAAASACDAADA
T17 sequence: T7 sequence with C22A

Leader-AAACSAADAADA = system: T18, Leader-AAACSAADAADA
T18 sequence: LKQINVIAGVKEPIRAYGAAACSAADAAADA

[1] = system: T19, minimal substrate PapA (msPapA)
T19 sequence: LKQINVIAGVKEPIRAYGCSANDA

Leader-CSAAANDA = system: T20, Leader-CSAAANDA
T20 sequence: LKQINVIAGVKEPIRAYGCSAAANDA

In the case of LKQINVIAGVKEPIRAYGCDSNNAANA [CX0D], the “extent of conversion to crosslinked peptide by PapB (in words)” value (“extent of conversion” below) (PapB) is reported as “did not fully react”.
LKQINVIAGVKEPIRAYGCSAAAANDA [CX6D] was tested, and the “extent of conversion” value (PapB) was “did not fully react”.
With “LKQINVIAGVKEPIRAYGCSANDA [msPapA, reference compound]” the “kinetics with dT relative to biological reducing system” value (PapB; 430 nM PapB, 191 μM peptide) was “roughly 3 fold”, the substrate conversion (PapB; biological reducing system (FldA/FPR/NADPH)) was 100% and the substrate conversion (PapB; chemical reducing system (dT)) was 100%. The “turnover number (approximation of kcat for PapB)” value (PapB; dithionite (dT) as reductant, 430 nM PapB, 191 μM peptide, linear portion of curve, FIG. 5 names Y17W msPapA) was 7.4 ± 0.1 s⁻¹ and the “extent of conversion” value (PapB) was “complete conversion”.
For “LKQINVIAGVKEPIRAYGCSAN^DDA [leader-CSAN^DDA]”, the “extent of conversion” value (PapB) was “conversion is not complete”.
For “LKQINVIAGVKEPIRAYGENLYFQ^DFCF^DWKTET [octreotide analog]”, the “substrate converted to crosslinked product” value (PapB) was about 75%.
For “LKQINVIAGVKEPIRAYGPCSAN^DDA [leader-^DCSAN^DDA]”, the “substrate converted to crosslinked product” value (PapB) was at least 15% and the “extent of conversion” value (PapB) was “processed inefficiently”.
“LKQINVIAGVKEPIRAYG^DCSANDA (LKQINVIAGVKEPIRAYG[dC]SANDA) [leader-^DCSANDA]” was tested, and the “extent of conversion” value (PapB) was “full conversion”.
In the case of PapB, the “thioether crosslinking (loss of 2 Da, MS)” value (Leader-CSAAAANDA) is reported as “CX0D (FIG. 8B) and CX6D (FIG. 8C) did not fully react--suggesting that PapB does not processes these motifs efficiently”, the “thioether crosslinking (loss of 2 Da, MS)” value (Leader-CSNDAAA) is reported as “the reactions with 1-5 intervening residues appear to go to completion” and the “thioether crosslinking (MS)” value (Leader-DSANCA) is reported as “we were unable to observe any crosslinked product with the transposed peptides, either with L- or D-amino acids”. The “substrate converted to crosslinked product (MS)” value (leader-^DCSAN^DDA) was “at least ˜15% of the substrate is converted to product”, the “thioether crosslinking (loss of 4 Da, MS)” value (Leader-AAACSANDACSANDA) was “all the peptides that were examined were efficiently crosslinked by the enzyme” and the “thioether crosslinking (loss of 2 Da, MS)” value (Leader-CDSNNAANA) was “CX0D (FIG. 8B) and CX6D (FIG. 8C) did not fully react--suggesting that PapB does not processes these motifs efficiently”. The “thioether crosslinking (loss of 4 Da, MS)” value (Leader-AAACSACDAADA) was “all the peptides that were examined were efficiently crosslinked by the enzyme”, the “thioether crosslinking (MS)” value (Leader-^DDSANCA) was “we were unable to observe any crosslinked product with the transposed peptides, either with L- or D-amino acids” and the “thioether crosslinking (MS)” value (Leader-DSAN^DCA) was “we were unable to observe any crosslinked product with the transposed peptides, either with L- or D-amino acids”. The “thioether crosslinking (loss of 2 Da, MS)” value (leader-CSAN^DDA) was “significant substrate turnover is observed as well, but the conversion is not complete”, the “thioether crosslinking (loss of 2 Da, MS)” value (Leader-AAACSANDA) was “all the peptides that were examined were efficiently crosslinked by the enzyme” and the “thioether crosslinking (loss of 2 Da, MS)” value (Leader-CSAANDA) was “the reactions with 1-5 intervening residues appear to go to completion”. The “thioether crosslinking (loss of 2 Da, MS)” value (Leader-CSDNNAAA) was “the reactions with 1-5 intervening residues appear to go to completion”, the “turnover number with dithionite (approximation of kcat)” value (Y17W msPapA) was 7.4±0.1 s^-1 with dT and the “turnover number with the biological reducing system FldA/FPR/NADPH (approximation of kcat)” value (Y17W msPapA) was 2.6=0.2 s^-1 are estimated with the biological reducing system. For the same substance, the “thioether crosslinking (loss of 2 Da, MS)” value (leader-^DCSANDA) was “full conversion to the crosslinked peptide is seen, as evidenced by the loss of 2 Da”, the “thioether crosslinking (MS)” value (Leader-^DDSAN^DCA) was “we were unable to observe any crosslinked product with the transposed peptides, either with L- or D-amino acids” and the “thioether crosslinking (loss of 2 Da, MS)” value (Leader-AAAASACDAADA) was “all the peptides that were examined were efficiently crosslinked by the enzyme”. For the same substance, the “thioether crosslinking (loss of 2 Da, MS)” value (Leader-AAACSAADAADA) was “all the peptides that were examined were efficiently crosslinked by the enzyme”, the “thioether crosslinking (loss of 2 Da, HR-MS)” value [1] was “complete conversion of msPapA to a singly crosslinked peptide is routinely observed using 0.1 nmol PapB and 20 mmol msPapA in 5 min” and the “thioether crosslinking (loss of 2 Da, MS)” value [1] was “the reactions with 1-5 intervening residues appear to go to completion”. The “thioether crosslinking (loss of 2 Da, MS)” value (Leader-CSAAANDA) was “the reactions with 1-5 intervening residues appear to go to completion”.
